Values quoted from earlier work, collected in paper PMC3929396.

Target: CCR5 (Homo sapiens) (UniProt P51681)
Experiment: SPR

UniProt P51681, sequence (P51681 whole entry): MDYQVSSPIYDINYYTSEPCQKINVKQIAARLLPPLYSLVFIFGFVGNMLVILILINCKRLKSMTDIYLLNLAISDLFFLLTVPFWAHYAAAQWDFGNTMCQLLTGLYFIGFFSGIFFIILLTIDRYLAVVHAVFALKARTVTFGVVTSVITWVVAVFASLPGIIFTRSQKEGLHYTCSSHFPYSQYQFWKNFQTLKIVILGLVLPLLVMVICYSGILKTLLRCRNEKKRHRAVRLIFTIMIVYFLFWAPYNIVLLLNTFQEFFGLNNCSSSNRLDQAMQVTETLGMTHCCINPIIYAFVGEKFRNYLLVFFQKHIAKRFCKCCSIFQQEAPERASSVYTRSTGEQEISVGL

**Q.** For LukE (from UniProt O54081), which Kd is on record?
**A.** 39.6 nM
